Key:
Assay in all cases: FRET on MonoMac 6 cells, unstimulated and LPS-stimulated
TLR4 = target: T1, TLR4 (human, UniProt O00206 24-839)
T1 construct: whole, on cells; also called Toll-like receptor 4

CD14 = target: T2, CD14 (human, UniProt P08571 20-345)
T2 construct: whole, on cells
T2 sequence (looked up): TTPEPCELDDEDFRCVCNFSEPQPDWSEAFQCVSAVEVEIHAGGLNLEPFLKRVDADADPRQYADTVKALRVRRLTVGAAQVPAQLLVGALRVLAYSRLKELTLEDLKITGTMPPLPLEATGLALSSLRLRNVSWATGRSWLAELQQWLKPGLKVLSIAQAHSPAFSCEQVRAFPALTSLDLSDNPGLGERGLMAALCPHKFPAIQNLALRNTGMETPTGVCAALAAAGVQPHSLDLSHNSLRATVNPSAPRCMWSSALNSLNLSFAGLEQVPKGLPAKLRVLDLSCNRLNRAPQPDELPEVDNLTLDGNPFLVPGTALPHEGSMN

Hsp70 = target: T3, Hsp70 (human, UniProt P0DMV8 2-641)
T3 construct: whole, on cells
T3 sequence (P0DMV8 2-641): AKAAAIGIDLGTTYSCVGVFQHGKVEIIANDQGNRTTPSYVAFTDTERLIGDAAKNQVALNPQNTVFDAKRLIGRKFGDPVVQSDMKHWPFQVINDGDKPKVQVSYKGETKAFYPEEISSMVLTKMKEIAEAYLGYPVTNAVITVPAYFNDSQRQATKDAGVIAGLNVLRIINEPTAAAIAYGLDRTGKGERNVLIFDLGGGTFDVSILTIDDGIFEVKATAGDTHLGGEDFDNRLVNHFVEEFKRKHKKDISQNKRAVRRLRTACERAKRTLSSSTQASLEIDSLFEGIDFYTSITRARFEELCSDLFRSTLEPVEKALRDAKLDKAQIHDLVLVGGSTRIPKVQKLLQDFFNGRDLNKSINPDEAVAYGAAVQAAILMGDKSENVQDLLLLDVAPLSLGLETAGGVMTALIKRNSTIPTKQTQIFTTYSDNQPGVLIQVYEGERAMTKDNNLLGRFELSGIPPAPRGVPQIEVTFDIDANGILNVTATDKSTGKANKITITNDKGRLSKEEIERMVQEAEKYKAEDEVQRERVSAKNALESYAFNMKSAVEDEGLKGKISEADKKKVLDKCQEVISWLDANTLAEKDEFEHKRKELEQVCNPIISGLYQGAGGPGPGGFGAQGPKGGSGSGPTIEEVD

CXCR4 = target: T4, CXCR4 (human, UniProt P61073 1-352)
T4 construct: whole, on cells
T4 sequence (P61073 whole entry): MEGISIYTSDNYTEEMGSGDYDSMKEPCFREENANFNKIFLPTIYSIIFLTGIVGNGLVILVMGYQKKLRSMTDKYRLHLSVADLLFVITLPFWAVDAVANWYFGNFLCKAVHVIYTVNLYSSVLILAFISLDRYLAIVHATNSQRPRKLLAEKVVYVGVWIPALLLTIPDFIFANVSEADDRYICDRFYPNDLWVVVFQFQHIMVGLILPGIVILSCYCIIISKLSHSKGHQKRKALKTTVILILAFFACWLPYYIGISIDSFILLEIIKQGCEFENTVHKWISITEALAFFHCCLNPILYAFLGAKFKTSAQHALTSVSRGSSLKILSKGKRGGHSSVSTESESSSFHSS

Measured: binding result

T1 sequence (O00206 24-839): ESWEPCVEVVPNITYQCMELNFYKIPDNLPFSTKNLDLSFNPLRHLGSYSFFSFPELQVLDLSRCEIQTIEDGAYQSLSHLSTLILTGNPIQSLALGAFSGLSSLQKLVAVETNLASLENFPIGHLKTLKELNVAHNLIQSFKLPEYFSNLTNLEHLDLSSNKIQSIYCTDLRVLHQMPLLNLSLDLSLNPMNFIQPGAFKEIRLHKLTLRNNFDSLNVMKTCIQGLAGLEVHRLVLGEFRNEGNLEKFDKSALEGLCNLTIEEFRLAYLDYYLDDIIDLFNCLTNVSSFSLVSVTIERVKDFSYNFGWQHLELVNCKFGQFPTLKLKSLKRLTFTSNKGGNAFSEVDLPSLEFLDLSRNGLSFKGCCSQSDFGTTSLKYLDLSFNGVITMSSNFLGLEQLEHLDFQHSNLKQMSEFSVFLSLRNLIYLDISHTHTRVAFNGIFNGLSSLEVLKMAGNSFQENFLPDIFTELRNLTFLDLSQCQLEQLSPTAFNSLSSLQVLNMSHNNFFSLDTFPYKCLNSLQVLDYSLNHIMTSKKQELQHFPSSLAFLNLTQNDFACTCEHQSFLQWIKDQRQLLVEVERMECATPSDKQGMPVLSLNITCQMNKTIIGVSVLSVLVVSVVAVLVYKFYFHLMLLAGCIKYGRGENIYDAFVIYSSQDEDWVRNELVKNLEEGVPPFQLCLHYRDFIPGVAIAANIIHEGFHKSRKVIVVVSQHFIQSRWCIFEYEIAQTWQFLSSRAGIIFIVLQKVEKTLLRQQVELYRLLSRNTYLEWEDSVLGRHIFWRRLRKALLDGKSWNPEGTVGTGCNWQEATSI

B1: E. coli GroES (other)
chain: MNIRPLHDRVIVKRKEVETKSAGGIVLTGSAAAKSTRGEVLAVGNGRILENGEVKPLDVKVGDIVIFNDGYGVKSEKIDNEEVLIMSESDILAIVEA
notes: also called E. coli homologue of Cpn10
no binding: all assays above

Source: patent publication US20090047240A1 (CBIO, published 2009)
